This assay deals with T1, sNUCB1 (N-terminally truncated human NUCB1, deletion of residues 1-31) (Homo sapiens, UniProt Q02818 32-461).
T1 construct: Expressed in E. coli; also called Calnuc; Ca2+ free NUCB1
T1 sequence: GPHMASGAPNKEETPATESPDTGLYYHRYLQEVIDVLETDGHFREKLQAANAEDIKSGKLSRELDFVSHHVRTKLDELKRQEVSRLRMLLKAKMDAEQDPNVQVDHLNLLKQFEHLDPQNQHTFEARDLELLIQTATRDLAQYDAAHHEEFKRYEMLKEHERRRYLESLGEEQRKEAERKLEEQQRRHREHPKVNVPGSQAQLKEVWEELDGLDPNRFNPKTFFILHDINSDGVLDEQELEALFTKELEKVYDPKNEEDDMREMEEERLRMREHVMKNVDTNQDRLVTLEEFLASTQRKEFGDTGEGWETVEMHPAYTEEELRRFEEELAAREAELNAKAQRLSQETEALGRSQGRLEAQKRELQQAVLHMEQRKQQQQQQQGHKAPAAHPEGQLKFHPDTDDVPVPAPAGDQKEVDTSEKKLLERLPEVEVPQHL
The assay can be described thus: inferred from TEM of Amylin fibrillization with Ca2+ free NUCB1 added 1:1 at t=0, 2, 7 and 15 min. An excerpt: Aggregation of Amylin involves an initial lag phase, which is associated with the formation of a nucleus. This nucleation phase is followed by the growth phase where monomers/oligomers add on to the nucleus converting the protofibrillar species into mature fibrils (Merlini and Bellotti, N. Engl. J. Med. 349, 583-596, 2003). Inhibitors of amyloidogenesis, known to date, either prolong the lag phase or slow down the growth phase. […] In the second reaction, Amylin oligomerization was allowed to proceed for 2 min into the reaction after which equimolar amount of NUCB1 was added. […] In the third reaction, NUCB1 was added after the nucleation phase of Amylin aggregation was complete (t=7 min). […] In the fourth experiment, the fibrillization reaction was allowed to proceed to the growth phase and NUCB1 was added during the elongation phase (t=1 5 min). […] This summarizes and supports the observation that Ca2+ free NUCB1 can inhibit the aggregation of Amylin at any stage during the fibrillization reaction.

Positions of bridges follow the written chain, without caps; N, C: chain ends. No end group written: not given here.

B1: Wild type human IAPP (Amylin) (peptide, UniProt P10997 34-70, looked up)
peptide: KCNTATCATQRLANFLVHSSNNFGAILSSTNVGSNTY-NH2
modifications: disulfide 2-7 (inferred)
notes: mature; Present in the assays as monomers, oligomers, protofibrils or mature fibrils, depending on the time of addition; also called hIAPP; Amylin peptide
Turning to B1, the binding result is “binds”.

(Values after patent publication US20110224143A1 (ROCKERFELLER UNIVERSITY, published 2011).)
